Key:
[1] = biological target: Stx2a A-subunit (enterohemorrhagic Escherichia coli, UniProt P09385 23-319); test: crystal structure; conditions: both partners purified
[2] = biological target: the molecule itself; test: crystal structure

B1: Stx2a B-subunit pentamer of the holotoxin (untagged) (natural protein)
chain: ADCAKGKIEFSKYNEDDTFTVKVDGKEYWTSRWNLQPLLQSAQLTGMTVTIKSSTCESGSGFAEVQFNND
[1]
  binding result: binds
[2]
  binding result: binds

Reference: publication PMC8111002 (Communications Biology, 2021)
